Assays:
FP receptor = target: T1, FP receptor (Homo sapiens, UniProt P43088); assay: Phosphoinositide hydrolysis in A549 cells stably expressing the peptides, stimulated with PGF2α; format: cell-based; conditions: peptide stably expressed intracellularly in A549 cells; 1 μM PGF2α, 30 min; n=3; FIG. 1A
T1 construct: introduced transiently into permeabilized A549 cells; endogenous in cells; host or cells: A549 lung carcinoma cells (ATCC CCL185)
Protocol: (§1) A549 lung carcinoma cells (ATCC Accession No.: CCL185, American Type Culture Collection, Rockville, Md. 20852) were cultured in Dulbecco's modified Eagles medium (DMEM) with 10% fetal bovine serum (FBS) and antibiotics, penicillin (10 U/ml) and streptomycin (10 μg/ml) in a humidified atmosphere containing 5% CO2 at 37° C. The cells were trypsinized and plated in 6-well tissue culture dishes at 2×10^5 cells/well, a day before commencing the experiments.
(§2) The expression plasmids carrying the third (PCP-1) and the fourth (PCP-2) intracellular domains were introduced into A549 cells using Transfectamine lipid (GIBCO Life Technologies, Burlington, ON). Three (3) micrograms of DNA and 16 μg of lipid were mixed in 200 μl of water and incubated at room temperature for 45 min. Then, the lipid-DNA complexes were diluted with 0.8 ml of Opti-MEM™ (GIBCO Life Technologies, Burlington, ON). The cells were washed twice with Hank's Balanced Salt Solution and incubated with lipid-DNA complexes for 6 hours. An equal volume of DMEM with 20% FBS was added and the cells were kept in the incubator overnight. On the next day, the medium was replaced with DMEM containing 10% FBS and antibiotics and incubated for another 24 hours. […]

EP1 = target: T2, EP1 (Homo sapiens, UniProt P34995); assay: Phosphoinositide hydrolysis in A549 cells stably expressing the peptides, stimulated with PGE2; format: cell-based; conditions: peptide stably expressed intracellularly in A549 cells; 1 μM PGE2, 30 min; FIG. 1B
T2 construct: a related prostaglandin receptor expressed in these cells; endogenous in cells; host or cells: A549 lung carcinoma cells (ATCC CCL185)
T2 sequence (P34995 1-402): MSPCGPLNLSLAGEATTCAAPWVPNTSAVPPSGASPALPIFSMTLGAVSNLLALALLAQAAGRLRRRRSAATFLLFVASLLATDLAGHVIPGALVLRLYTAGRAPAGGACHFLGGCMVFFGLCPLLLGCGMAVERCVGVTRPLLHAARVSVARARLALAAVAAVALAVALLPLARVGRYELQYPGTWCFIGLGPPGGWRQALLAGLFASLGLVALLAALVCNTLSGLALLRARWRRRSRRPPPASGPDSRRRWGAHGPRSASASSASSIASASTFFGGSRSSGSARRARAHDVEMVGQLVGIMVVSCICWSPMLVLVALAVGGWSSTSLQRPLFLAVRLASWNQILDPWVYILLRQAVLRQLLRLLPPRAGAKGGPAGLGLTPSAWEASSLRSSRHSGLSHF
Protocol: as §1, §2

T1 sequence (P43088 whole entry): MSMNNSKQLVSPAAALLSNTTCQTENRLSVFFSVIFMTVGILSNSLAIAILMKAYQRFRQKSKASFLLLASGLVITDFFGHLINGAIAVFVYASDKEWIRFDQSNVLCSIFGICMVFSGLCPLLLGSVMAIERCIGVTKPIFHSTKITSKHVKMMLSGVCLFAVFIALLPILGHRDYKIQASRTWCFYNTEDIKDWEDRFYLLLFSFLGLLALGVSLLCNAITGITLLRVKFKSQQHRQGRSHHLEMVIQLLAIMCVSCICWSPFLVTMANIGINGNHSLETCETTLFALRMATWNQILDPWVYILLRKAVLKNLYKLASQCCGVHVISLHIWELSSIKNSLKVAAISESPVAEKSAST

ligand-stimulated phosphoinositide hydrolysis (fold stimulation over unstimulated controls) (FP receptor) | inositol phosphate generation by EP1 receptor on stimulation with PGE2 (EP1) | Sequence
inhibited | did not affect | RVKFKSQQHR QGRSHHLEM (RVKFKSQQHRQGRSHHLEM) [PCP-1, third intracellular domain of the human FP receptor, expressed intracellularly from a plasmid]
inhibited | did not affect | RKAVLKNLYKLASQCCGVHVISLHIWELSSIKNSLKVAAISESPVAEKSAST (RKAVLKNLYKLASQCCGVHVISLHIWELSSIKNSLKVAAISESPVAEKSAST) [PCP-2, fourth intracellular domain of the human FP receptor, expressed intracellularly from a plasmid]
